The values below come from patent US20100068215A1 (published 2010).

By Kd is commonly meant the free concentration of one partner at which half of the binding sites on the other are occupied at equilibrium, for simple one-to-one binding. Lower therefore signals a tighter complex. As usually defined, the koff is the first-order rate constant of dissociation. A low value points to a long-lived complex. In general, kon refers to the rate constant with which the complex forms. A higher kon goes with faster complex formation.

Read-outs that look alike come from different tables or passages of the source.

First the molecules themselves.
B2: GDF11 (ligand, UniProt O95390 299-407, looked up)
chain: NLGLDCDEHSSESRCCRYPLTVDFEAFGWDWIIAPKRYKANYCSGQCEYMFMQKYPHTHLVQQANPRGSAGPCCTPTKMSPINMLYFNDKQQIIYGKIPGMVVDRCGCS
notes: also called Growth and Differentiation Factor-11; BMP11
B4: ActRIIB(L79 25-131)-hFc (Fc fusion)
chain: ETRECIYYNANWELERTNQSGLERCEGEQDKRLHCYASWRNSSGTIELVKKGCWLDDFNCYDRQECVATEENPQVYFCCCEGNFCNERFTHLPEAGGPEVTYEPPPTGGG
notes: also called ActRIIB(25-131)-hFc; not shown: human Fc domain (hFc)

Assay [1] has as its target T1, Activin A (UniProt P08476 311-426).
T1 sequence (looked up): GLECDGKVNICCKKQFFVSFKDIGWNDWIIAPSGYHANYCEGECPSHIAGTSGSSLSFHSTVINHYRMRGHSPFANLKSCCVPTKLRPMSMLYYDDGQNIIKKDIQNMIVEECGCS
Briefly: cell-based or functional assay.

Assay [2] concerns the target B2. Briefly: cell-based or functional assay.
The assay “ActRIIB(L79 25-131)-hFc” concerns the target B4. Nature of the assay: Biacore, steady-state affinity fit. As for the experimental part: (§1) The affinity of GDF Traps and other ActRIIB-hFc proteins for several ligands was evaluated in vitro with a Biacore™ instrument. Kd values were obtained by steady-state affinity fit due to the very rapid association and dissociation of the complex, which prevented accurate determination of kₒₙ and koff.

Another assay has as its target T2, Activin B (UniProt P09529 293-407).
T2 sequence (looked up): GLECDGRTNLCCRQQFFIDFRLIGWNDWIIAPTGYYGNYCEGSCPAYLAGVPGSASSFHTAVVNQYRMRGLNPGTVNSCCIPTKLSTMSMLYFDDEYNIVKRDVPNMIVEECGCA
Nature of the assay: Biacore, steady-state affinity fit. On the procedure: as §1

Assay [3] deals with T1, Activin A. Nature of the assay: Biacore, steady-state affinity fit. On the procedure: as §1
(SPR reads the build-up and loss of mass on a sensor chip optically.)

The target of assay [4] is T1, Activin A. Nature of the assay: Biacore; ActRIIB-Fc captured by anti-hFc antibody, ligand injected. On the procedure:
(§2) Binding of certain ActRIIB-Fc proteins and GDF Traps to ligands was tested in a BiaCore™ assay.
(§3) The ActRIIB-Fc variants or wild-type protein were captured onto the system using an anti-hFc antibody. Ligands were injected and flowed over the captured receptor proteins.

Assay [5] has as its target B2. Described as above. As for the experimental part: as §2, §3
Another assay concerns the target T3, GDF8 (UniProt O14793 267-375).
T3 construct: also called myostatin; Growth and Differentiation Factor-8
T3 sequence (looked up): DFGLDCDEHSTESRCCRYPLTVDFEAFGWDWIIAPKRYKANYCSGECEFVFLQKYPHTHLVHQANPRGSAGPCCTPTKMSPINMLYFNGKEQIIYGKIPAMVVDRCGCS
The assay is described as above. On the procedure:
as §2, §3

The target of assay [6] is B2. Briefly: Biacore, steady-state affinity fit. On the procedure: as §1

B1: ActRIIB(24-131)-hFc (Fc fusion, not shown: a dimerising Fc or GST)
chain: AETRECIYYNANWELERTNQSGLERCEGEQDKRLHCYASWRNSSGTIELVKKGCWLDDFNCYDRQECVATEENPQVYFCCCEGNFCNERFTHLPEAGGPEVTYEPPPTGGG
As to B1, the IC50 (ng/mL), A-204 reporter gene assay, conditioned media with Activin A [1] turned out to be 105 ng/mL; with GDF11 [2], 69 ng/mL.
Molecule B2 came in with a Kd with ActRIIB(L79 25-131)-hFc of 0.031 nM.

B3: ActRIIB(23-131)-hFc (Fc fusion, not shown: a dimerising Fc or GST)
chain: EAETRECIYYNANWELERTNQSGLERCEGEQDKRLHCYASWRNSSGTIELVKKGCWLDDFNCYDRQECVATEENPQVYFCCCEGNFCNERFTHLPEAGGPEVTYEPPPTGGG
Consider B3, for which the results for the IC50 (ng/mL), A-204 reporter gene assay, conditioned media with Activin A [1] and in the assay with GDF11 [2] were 43 ng/mL and 60 ng/mL, respectively.
For the molecule B4, the values for the Kd with Activin B and with Activin A [3] were 0.012 nM and 0.018 nM, respectively.

B5: ActRIIB(22-131)-hFc (Fc fusion, not shown: a dimerising Fc or GST)
chain: GEAETRECIYYNANWELERTNQSGLERCEGEQDKRLHCYASWRNSSGTIELVKKGCWLDDFNCYDRQECVATEENPQVYFCCCEGNFCNERFTHLPEAGGPEVTYEPPPTGGG
Consider B5, for which the IC50 (ng/mL), A-204 reporter gene assay, conditioned media with Activin A [1] was determined as 100 ng/mL; with GDF11 [2], 71 ng/mL.

B6: ActRIIB(20-128)-hFc (Fc fusion, not shown: a dimerising Fc or GST)
chain: GRGEAETRECIYYNANWELERTNQSGLERCEGEQDKRLHCYASWRNSSGTIELVKKGCWLDDFNCYDRQECVATEENPQVYFCCCEGNFCNERFTHLPEAGGPEVTYEPGGG
On to B6, for which the IC50 (ng/mL), A-204 reporter gene assay, conditioned media with Activin A [1] came to 158 ng/mL; with GDF11 [2] it was 130 ng/mL.

B7: ActRIIB(A24N 20-134)-hFc (Fc fusion)
chain: GRGENETRECIYYNANWELERTNQSGLERCEGEQDKRLHCYASWRNSSGTIELVKKGCWLDDFNCYDRQECVATEENPQVYFCCCEGNFCNERFTHLPEAGGPEVTYEPPPTAPTGGG
notes: also called the A24N variant; not shown: human Fc domain (hFc)
In the assay with Activin A [4], B7 displayed a Kd of 0.104 nM, a koff of 0.000346 s⁻¹ and a kon of 3.34e+06 M⁻¹ s⁻¹. Moreover, in the assay with GDF11 [5], binding was put at a Kd of 0.0519 nM and the koff was determined as 6.35e-05 s⁻¹.

B8: ActRIIB(R64K 20-134)-hFc (Fc fusion)
chain: GRGEAETRECIYYNANWELERTNQSGLERCEGEQDKRLHCYASWKNSSGTIELVKKGCWLDDFNCYDRQECVATEENPQVYFCCCEGNFCNERFTHLPEAGGPEVTYEPPPTAPTGGG
notes: not shown: human Fc domain (hFc)
In the assay with Activin A [4], B8 showed a Kd of 0.0476 nM, a koff of 0.000325 s⁻¹ and a kon of 6.82e+06 M⁻¹ s⁻¹. Moreover, in the assay with GDF8, binding was characterised by a dissociation constant (Kd) of 0.21 nM and the koff came out at 4.71e-05 s⁻¹. In the assay with GDF11 [5], the affinity, expressed as Kd, was 0.0356 nM and the koff was 2.41e-05 s⁻¹.

B9: ActRIIB(K74A 20-134)-hFc (Fc fusion)
chain: GRGEAETRECIYYNANWELERTNQSGLERCEGEQDKRLHCYASWRNSSGTIELVAKGCWLDDFNCYDRQECVATEENPQVYFCCCEGNFCNERFTHLPEAGGPEVTYEPPPTAPTGGG
notes: as for B8
Turning to B9, in the assay with GDF8, the Kd was 0.0718 nM and the koff is 2.03e-05 s⁻¹.

B10: ActRIIB(P129S, P130R 20-134)-hFc (Fc fusion)
chain: GRGEAETRECIYYNANWELERTNQSGLERCEGEQDKRLHCYASWRNSSGTIELVKKGCWLDDFNCYDRQECVATEENPQVYFCCCEGNFCNERFTHLPEAGGPEVTYEPSRTAPTGGG
notes: kept as two molecules; not shown: human Fc domain (hFc)
In the assay with Activin A [4], B10 came in with a Kd of 0.0831 nM, a koff of 0.000417 s⁻¹ and a kon of 5.02e+06 M⁻¹ s⁻¹. In the assay with GDF8, the Kd amounted to 1.67 nM and the koff was 0.00018 s⁻¹.

B11: ActRIIB(R64K 20-129)-hFc (Fc fusion)
chain: GRGEAETRECIYYNANWELERTNQSGLERCEGEQDKRLHCYASWKNSSGTIELVKKGCWLDDFNCYDRQECVATEENPQVYFCCCEGNFCNERFTHLPEAGGPEVTYEPPGGG
notes: as for B8
In the assay with Activin A [4], B11 came in with a Kd of 0.0841 nM, a koff of 0.000628 s⁻¹ and a kon of 7.46e+06 M⁻¹ s⁻¹. For the same molecule, in the assay with GDF8, the Kd is 2.15 nM and the koff was 0.000209 s⁻¹.

B12: ActRIIB(20-131)-hFc (Fc fusion, not shown: a dimerising Fc or GST)
chain: GRGEAETRECIYYNANWELERTNQSGLERCEGEQDKRLHCYASWRNSSGTIELVKKGCWLDDFNCYDRQECVATEENPQVYFCCCEGNFCNERFTHLPEAGGPEVTYEPPPTGGG
B12: the IC50 (ng/mL), A-204 reporter gene assay, conditioned media was 201 ng/mL with Activin A [1], 44 ng/mL with Activin A [1] (record 2), 183 ng/mL in the assay with GDF11 [2] and 120 ng/mL in the assay with GDF11 [2] (record 2).

B13: ActRIIB(20-132)-hFc (Fc fusion, not shown: a dimerising Fc or GST)
chain: GRGEAETRECIYYNANWELERTNQSGLERCEGEQDKRLHCYASWRNSSGTIELVKKGCWLDDFNCYDRQECVATEENPQVYFCCCEGNFCNERFTHLPEAGGPEVTYEPPPTAGGG
Take B13: the IC50 (ng/mL), A-204 reporter gene assay, conditioned media with Activin A [1] came to 32 ng/mL; in the assay with GDF11 [2] it was 87 ng/mL.

B14: ActRIIB(21-131)-hFc (Fc fusion, not shown: a dimerising Fc or GST)
chain: RGEAETRECIYYNANWELERTNQSGLERCEGEQDKRLHCYASWRNSSGTIELVKKGCWLDDFNCYDRQECVATEENPQVYFCCCEGNFCNERFTHLPEAGGPEVTYEPPPTGGG
With B14, the figures for the IC50 (ng/mL), A-204 reporter gene assay, conditioned media with Activin A [1] and in the assay with GDF11 [2] were 325 ng/mL and 121 ng/mL, respectively.

B15: ActRIIB(20-134)-hFc (Fc fusion)
chain: GRGEAETRECIYYNANWELERTNQSGLERCEGEQDKRLHCYASWRNSSGTIELVKKGCWLDDFNCYDRQECVATEENPQVYFCCCEGNFCNERFTHLPEAGGPEVTYEPPPTAPTGGGTHTCPPCPAPELLGGPSVFLFPPKPKDTLMISRTPEVTCVVVDVSHEDPEVKFNWYVDGVEVHNAKTKPREEQYNSTYRVVSVLTVLHQDWLNGKEYKCKVSNKALPVPIEKTISKAKGQPREPQVYTLPPSREEMTKNQVSLTCLVKGFYPSDIAVEWESNGQPENNYKTTPPVLDSDGSFFLYSKLTVDKSRWQQGNVFSCSVMHEALHNHYTQKSLSLSPGK
Consider B15, for which the entries for the “IC50 (ng/mL), A-204 reporter gene assay, conditioned media” value with Activin A [1] and with GDF11 [2] were 22 ng/mL and 45 ng/mL, respectively. Moreover, the Kd in the assay with Activin A [4] was 0.0268 nM; in the assay with GDF8 it was 0.0935 nM; with GDF11 [5] it was 0.0842 nM; in the assay with Activin B, 0.012 nM; in the assay with Activin A [3] it was 0.016 nM; with GDF11 [6], 0.036 nM. Further, the koff with Activin A [4] worked out at 0.000159 s⁻¹; with GDF8, 3.45e-05 s⁻¹; with GDF11 [5] it was 0.000113 s⁻¹. Besides, the kon with Activin A [4] was found to be 5.94e+06 M⁻¹ s⁻¹.
